The text below walks through data of patent US20240294632A1 (XL PROTEIN, published 2024).

Experiment [1] deals with T1, hu4D5-P/A #1(200).
T1 construct: Detected with anti-human kappa light chain antibody in the capture ELISA
The experiment in a line: MAb capture ELISA, hybridoma supernatant on anti-mouse IgG Fc, antigen titrated. Background: An ELISA detects its analyte on a solid surface through an enzyme-linked reagent.

The target of the next experiment is T2, hu4D5-PAS #1(200).
T2 construct: Detected with anti-human kappa light chain antibody in the capture ELISA
The description is as above.

In a further experiment the target is T3, IL1Ra (Kineret/Anakinra) (UniProt P18510 26-177).
T3 construct: Commercial drug product; also called non-PASylated protein version
As to the kind of experiment: western blot, hybridoma supernatant 1:2000 or purified MAb 1:200000. In general terms: A western blot detects proteins with antibodies after separation by electrophoresis.

Experiment [2] has as its target T1, hu4D5-P/A #1(200). The experiment in a line: MAb capture ELISA: MAb from hybridoma supernatant captured by anti-mouse IgG Fc, hu4D5-P/A#1(200) titrated (x axis: antigen concentration).
In a further experiment the target is T4, P/A #1(200)-IL1Ra.
T4 construct: PASylated fusion protein produced in E. coli; Biotinylated for the SPR measurements with Fabs
As to the kind of experiment: SPR, MAb from hybridoma supernatant captured by anti-mouse antibody, antigen as analyte, bivalent analyte model. (In SPR one partner is held on a chip, and binding of the other changes the refractive index at the surface.)

Another experiment has as its target T5, PAS #1(200)-IL1Ra.
T5 construct: PASylated fusion protein produced in E. coli; Biotinylated for the SPR measurements with Fabs
The description is as above.

In experiment [3] the target is T6, PASylated Thymosin alpha 1.
T6 construct: also called PASylated Tα1
T6 chain: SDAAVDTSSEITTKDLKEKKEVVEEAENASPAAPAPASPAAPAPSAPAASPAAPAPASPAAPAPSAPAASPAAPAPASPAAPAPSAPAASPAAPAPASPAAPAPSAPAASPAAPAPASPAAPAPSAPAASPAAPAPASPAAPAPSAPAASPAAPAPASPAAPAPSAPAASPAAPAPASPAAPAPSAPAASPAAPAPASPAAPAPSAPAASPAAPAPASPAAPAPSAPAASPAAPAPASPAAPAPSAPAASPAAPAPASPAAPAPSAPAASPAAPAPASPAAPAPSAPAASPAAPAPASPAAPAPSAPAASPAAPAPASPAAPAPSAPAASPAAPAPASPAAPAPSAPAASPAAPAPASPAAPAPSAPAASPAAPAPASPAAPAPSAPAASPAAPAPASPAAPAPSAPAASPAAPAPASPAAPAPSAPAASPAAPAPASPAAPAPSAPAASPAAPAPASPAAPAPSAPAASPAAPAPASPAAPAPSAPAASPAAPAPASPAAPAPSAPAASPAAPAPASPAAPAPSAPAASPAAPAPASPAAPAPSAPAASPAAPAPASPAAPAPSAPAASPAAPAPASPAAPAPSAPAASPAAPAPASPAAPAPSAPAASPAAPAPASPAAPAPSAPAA
As to the kind of experiment: sandwich ELISA in diluted rat plasma: MAb 2.1 coated as capture antibody, MAb 1.2-alkaline phosphatase as detection reagent; calibration curve.

T4 sequence (chain, as listed by the source limits assumed): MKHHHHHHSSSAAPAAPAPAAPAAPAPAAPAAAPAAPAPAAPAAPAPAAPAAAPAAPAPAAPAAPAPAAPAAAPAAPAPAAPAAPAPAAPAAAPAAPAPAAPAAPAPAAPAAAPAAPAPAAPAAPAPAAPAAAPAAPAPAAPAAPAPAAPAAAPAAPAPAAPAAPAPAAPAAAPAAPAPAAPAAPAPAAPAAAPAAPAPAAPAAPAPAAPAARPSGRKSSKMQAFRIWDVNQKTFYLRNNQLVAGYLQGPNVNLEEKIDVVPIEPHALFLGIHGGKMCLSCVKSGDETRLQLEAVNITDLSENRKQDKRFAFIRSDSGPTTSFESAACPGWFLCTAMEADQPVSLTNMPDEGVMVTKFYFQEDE
T5 sequence (chain, as listed by the source limits assumed): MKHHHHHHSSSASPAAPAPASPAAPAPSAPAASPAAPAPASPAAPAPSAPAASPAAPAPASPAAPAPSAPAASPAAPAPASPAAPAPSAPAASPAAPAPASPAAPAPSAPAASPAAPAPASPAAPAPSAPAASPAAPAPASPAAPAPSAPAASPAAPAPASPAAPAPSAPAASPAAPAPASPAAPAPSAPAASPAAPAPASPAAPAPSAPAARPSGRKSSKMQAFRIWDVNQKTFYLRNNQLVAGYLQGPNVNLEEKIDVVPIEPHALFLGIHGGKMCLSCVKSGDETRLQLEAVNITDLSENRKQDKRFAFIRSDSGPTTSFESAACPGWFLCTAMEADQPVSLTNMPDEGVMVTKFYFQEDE
T3 sequence (P18510 26-177 limits assumed): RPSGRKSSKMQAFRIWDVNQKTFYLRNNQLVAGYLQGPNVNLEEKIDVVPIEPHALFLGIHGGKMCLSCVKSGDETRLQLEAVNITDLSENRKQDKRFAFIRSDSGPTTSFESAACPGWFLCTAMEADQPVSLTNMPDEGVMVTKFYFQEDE

B1: Anti-PA(S) MAb 2.1 (antibody, V domains shown)
VH: QVTLKESGPGILQPSQTLSLTCSFSGFSLSTYDMGVGWIRQPSGKGLEWLANIWWNDNKYYNSALKSRLTISKDTSNNQVFLKISSVDATDTATYYCAQMRDNYGVWFAFWGQGTLVTVSA
VL: DIVMSQSPSSLAVSVGEKVTMSCKSSQSLFYSNREKNYLAWYQQKPGQSPKLLIYWASTRESGVPDRFTGSGSGTDFTLTISNVKAEDLAVYYCQQYYNYPTFGAGTKLELKR
notes: Mouse monoclonal IgG from hybridoma (supernatant or protein G purified); also called DSM ACC3366
Take B1: the Kd amounted to 0.17 nM with hu4D5-P/A #1(200) [1], 0.113 nM with hu4D5-PAS #1(200), 0.429 nM with P/A #1(200)-IL1Ra and 1.7 nM with PAS #1(200)-IL1Ra. Further, the binding result in the experiment with IL1Ra (Kineret/Anakinra) is given as “no binding”; in experiment [3] it was “binds”. Besides, in the experiment with hu4D5-P/A #1(200) [2], the “EC50 (read off the curve)” value is around 0.08 nM.

As a reminder, the EC50 (read off the curve) is the midpoint of the concentration-response curve.
